Results: article PMC6368585, “Chaperone activation and client binding of a 2-cysteine peroxiredoxin” (Nature Communications, 2019)

Legend:
[1] = molecular target: luciferase (thermally unfolded model client) [luciferase: P08659]
[2] = molecular target: the molecule itself; assay: cross-linking; quantitative cross-linking (qCL) with isotopically light or heavy DSS (0.1 mM), each condition (Red or Ox, 30 °C or 42 °C) cross-linked apart and mixed 1:1; log2(H/L) of inter-protein K122/K123 peptide pairs across the dimer-dimer (A-type) interface; decamer to dimers
[3] = molecular target: T1, luciferase (thermally unfolded model client) (UniProt P08659 1-550 = luciferase); assay: AUC; analytical ultracentrifugation of mTXNPxred with luciferase (Supplemental Methods); details: both partners purified
T1 construct: luciferase, 63 kDa; cross-links were mapped onto the whole-chain model pdb 1LCI; source: bought: Promega
T1 sequence (P08659 whole entry): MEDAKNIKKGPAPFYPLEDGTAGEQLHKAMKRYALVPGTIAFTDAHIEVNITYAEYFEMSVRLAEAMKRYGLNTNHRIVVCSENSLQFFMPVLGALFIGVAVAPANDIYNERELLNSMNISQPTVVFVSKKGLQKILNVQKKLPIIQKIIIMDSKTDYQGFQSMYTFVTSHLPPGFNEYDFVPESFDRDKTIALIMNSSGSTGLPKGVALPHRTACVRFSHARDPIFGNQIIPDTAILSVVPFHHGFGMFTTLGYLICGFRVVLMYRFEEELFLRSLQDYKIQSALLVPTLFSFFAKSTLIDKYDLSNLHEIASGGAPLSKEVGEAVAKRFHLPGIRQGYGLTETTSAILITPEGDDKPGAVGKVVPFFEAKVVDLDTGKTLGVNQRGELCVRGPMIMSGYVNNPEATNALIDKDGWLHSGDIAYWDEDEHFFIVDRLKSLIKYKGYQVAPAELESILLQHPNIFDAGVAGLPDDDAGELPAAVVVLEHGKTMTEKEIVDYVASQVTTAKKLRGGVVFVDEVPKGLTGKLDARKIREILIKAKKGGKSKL

luciferase (thermally unfolded model client) [luciferase: P08659], sequence (P08659 whole entry): as above

∆5mTXNPx, N-terminal truncation mutant lacking the first 5 residues of the mature protein (reduced) (from UniProt A0A6L0XFC6 33-226) (enzyme)
chaperone activity: suppression of the thermal aggregation of luciferase (0.1 µM, 42 °C, light scattering at 360 nm), different ratios up to a 40-fold molar excess, compared to wt-mTXNPx (% less active than wt-mTXNPx) [1]: > 70

B1: reduced, decameric Leishmania infantum mitochondrial 2-Cys peroxiredoxin mTXNPx (mTXNPxred) (enzyme)
chain: GSHMNLDYQMYRTATVREAAPQFSGQAVVNGAIKDINMNDYKGKYIVLFFYPMDFTFVCPTEIIAFSDRHADFEKLNTQVVAVSCDSVYSHLAWVNTPRKKGGLGEMHIPVLADKSMEIARDYGVLIEESGIALRGLFIIDKKGILRHSTINDLPVGRNVDEALRVLEAFQYADENGDAIPCGWKPGQPTLDTTKAGEFFEKNM
notes: Reduced form, decamer of five dimers; also called Prx1m; wt mTXNPx; source: E. coli BL21(DE3), purified; His tag removed with thrombin; reduced with 5 mM DTT; not shown: His6, N-terminal, cleaved; copies: 10
log2(H/L) of inter-protein cross-link Pep1-Pep1, heavy Red (42 °C) over light Red (30 °C) [2]: -2.32 log2 ratio | log2(H/L) of inter-protein cross-link Pep1-Pep2, heavy Red (30 °C) over light Red (42 °C) [2]: 1.4 log2 ratio | log2(H/L) of inter-protein cross-link Pep1-Pep2, heavy Red (42 °C) over light Red (30 °C) [2]: -1.55 log2 ratio | stoichiometry N [3]: 1 luciferase per mTXNPx decamer
